From patent US10487337B2, “Methods for monocot plant improvement” (Agresearch Limited, priority 2014, dated 2019)

Target: T1, BZR1 (Arabidopsis thaliana, UniProt Q8S307)
T1 construct: expressed in transfected cells; host or cells: yeast strain MaV203
T1 sequence (Q8S307 with tags, fused parts or gaps): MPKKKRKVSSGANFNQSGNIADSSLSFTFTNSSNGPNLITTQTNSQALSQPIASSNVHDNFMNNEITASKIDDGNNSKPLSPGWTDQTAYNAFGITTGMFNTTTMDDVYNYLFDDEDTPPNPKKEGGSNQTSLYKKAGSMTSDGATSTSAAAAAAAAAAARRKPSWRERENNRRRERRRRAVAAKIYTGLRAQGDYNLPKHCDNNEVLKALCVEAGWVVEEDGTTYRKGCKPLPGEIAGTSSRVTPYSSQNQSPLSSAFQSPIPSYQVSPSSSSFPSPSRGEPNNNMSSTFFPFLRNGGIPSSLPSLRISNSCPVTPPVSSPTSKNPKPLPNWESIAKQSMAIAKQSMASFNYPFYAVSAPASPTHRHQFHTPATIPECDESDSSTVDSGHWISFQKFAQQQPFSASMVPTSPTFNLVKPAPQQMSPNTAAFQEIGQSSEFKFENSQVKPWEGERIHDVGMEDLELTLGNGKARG
Assay: Yeast two hybrid (Y2H) interaction with BZR1
Assay type: binding
From the text: The constructs for Y2H and BiFC assays were generated as follows. Arabidopsis DNA sequences encoding the open reading frames for; At4g14713 (PPD1) and truncation and deletion derivatives of PPD1: PPD1; PPD1Δppd (N-terminal truncation of sequences encoding aa 1-61), PPD1Δtify, (internal deletion of sequences encoding aa 154-186), PPD1Δjas*(C-terminal truncation of sequences encoding aa 229-313) (FIG. 5), At4g28910 (NINJA), At1g15750 (TPL), At1g75080 (BZR1), a synthetic PUAS-35S promoter, and sequences encoding GAL4DBD and c-myc fusion proteins were synthesised and sequence verified by GeneArt. Most sequences were supplied as clones in pENTR221 ready for Gateway cloning into yeast and plant expression vectors. The exception, a promoter sequence for in planta transcription activation assays, incorporating 5′ Xho1 and 3′ Nco1 restriction enzyme sites, was supplied cloned in pMA-RQ. Plasmids for the transient LUC reporter assay: A synthetic promoter with 5×UAS GAL4 DNA binding sites upstream of a −105 bp CaMV35S promoter was cloned into the XhoI-NcoI sites within a dual luciferase construct pNWA62, which contains an intron-containing Firefly Luciferase gene (LUC) and 35Spro::Renilla Luciferase (REN) as an internal standard, to construct pAML7. […]

B1: PPD1: PEAPOD 1 protein of Arabidopsis thaliana, SEQ ID NO: 1 (protein, listed as Arabidopsis thaliana)
chain: MDVGVSPAKSILAKPLKLLTEEDISQLTREDCRKFLKDKGMRRPSWNKSQAIQQVLSLKALYEPGDDSGAGIFRKILVSQPVNPPRVTTTLIEPSNELEACGRVSYPEDNGACHRMDSPRSAEFSGGSGHFVSEKDGHKTTISPRSPAETSELVGQMTIFYSGKVNVYDGIPPEKARSIMHFAANPIDLPENGIFASSRMISKLISKEKMMELPQKGLEKANSSRDSGMEGQANRKVSLQRYREKRKDRKFSKAKKCPGVASSSLEMFLNCQPRMKAAYSQNLGCTGSPLHSQSPESQTKSPNLSVDLNSEGI
- interaction with BZR1: no direct interaction
